Data taken from the supplement of paper PMC9170038.

system: MS2 coat protein; assay: apparent KD of MS2 coat protein; higher = weaker reporter binding; settings: Eterna round: R107; input ligand: theophylline 2 mM
Experimental: (§1)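 RNA-MaP round R107: designed RNA switches with theophylline, tryptophan, arginine or FMN aptamers are transcribed on-chip within common flanks. They are titrated with SNAP-549-labelled MS2 coat protein in RNA-MaP buffer (100 mM Tris pH 7.5, 80 mM KCl, 4 mM MgCl2), without ligand or with the indicated ligand. Median apparent KD per design.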

“GAUAUGUUUCGAAGGAGCGGCCCUUGAUCCUCAUGAGACAUGAGGAUCACCCAUGUCUCGGGCCAGGUAGGUCGCGAAAUAUAUC [Astros-omei-mod4]” and “GGACUAACCAGAAGGAGCGACGCGCAGAAACUGCAAAAUCCUCCACACGAGGAUCACCCGUGUCAGGUAGGUCGCUGGUUAGUCG [ArgXB 16 #CuTurnoff #MS2Left #StaticStem #Blueprint]” are within 1.5-fold of each other in “apparent KD of MS2 coat protein” value: 21.4 nM for the first, 27.2 nM for the second.

Compared with “ACGUCCAGGUUAAUCGUGGGCAUGGUCGAUACCAGUAUUUUAAUCUACCCUUGGCAGCGACAUGAGGAUCACCCAUGUGCGAUGA [XTheo A #16]”, “ACAUGAGGAUCACCCAUGUACAUGAGGGAAGGAGCGGUACAUGUGCCAGGUAGGUCGCCCAACAGCAUCAGCCAUGUACAACGGA [xxbmullin]” is 1.7-fold higher in “apparent KD of MS2 coat protein” value: 40.1 nM for the first, 69.5 nM for the second.

First: GAGUCCACGGCGGCCGCCACUCGCGGCGCCACAUGGCGCCGGGACAUGAGGAUCACCCAUGUCCCGAGGACCGGGCCGAUCCUUA [Same State Typrtophan B GF3]
Second: CCUAUCCAGUCGGCCGCCACUGAAAACAGUGGGUGAACAUGAGGAUCACCCAUGUAAUAAUAAAACAGGACCGGGACUGUAUAGG [Ex Tryptophan B 22]
The “apparent KD of MS2 coat protein” value of the first is 28-fold lower: 31.5 nM for the first, 882 nM for the second.

“GCCGCUGCCGCGAUAUGUAUGGGUGUGUAACGAGGACCGGUACGGCCGCCACUCGCGAUCGCACAUGAGGAUCACCCAUGUGUCC [Exclusion Tryp A GF18]” was tested, and the “apparent KD of MS2 coat protein” value was 68 nM.

same assay, conditions: Eterna round: R107; input ligand: tryptophan 2.4 mM

“AAUUCCUCACAUGAGGAUCACCCAUGUGAAGGAGCGCCGAAUAAGGCAGGUAGGUCGCACAUGGAAACCGCUACGAAAGUAGUAA [XArg-A 2 NuV2]” and “CAUAUAUAUGGAAGGAGCGCGAUUACAUAACAUGAGGAUCACCCAUGUAAGAAAUUAUUCAUGCAGGUAGGUCGCCAUAUAUAUG [Same State Arginine B GF6]” are within 1.5-fold of each other in “apparent KD of MS2 coat protein” value: 19.2 nM for the first, 26.6 nM for the second.

“GCACGAGUAAGACCUGACUUCAACAAUGAUACCAGACUAGUAAACGUCCCUUGGCAGCAUCAGACAUGAGGAUCACCCAUGUGGC [theeternabot_exclusion_MS2_Theo_A_44]” and “AGCCCUGUACUAGAUACCAGCUACAUGAGGAUCACCCAUGUACGAUAAGACUGUCCAUGUAGCCCUUGGCAGCUGCUCGCAUGUA [#13 Exclusion-TheophyllineB]” are within 1.5-fold of each other in “apparent KD of MS2 coat protein” value: 34.3 nM for the first, 29.2 nM for the second.

First: GAUAUGUUUCGAAGGAGCGGCCCUUGAUCCUCAUGAGACAUGAGGAUCACCCAUGUCUCGGGCCAGGUAGGUCGCGAAAUAUAUC [Astros-omei-mod4]
Second: GGACUAACCAGAAGGAGCGACGCGCAGAAACUGCAAAAUCCUCCACACGAGGAUCACCCGUGUCAGGUAGGUCGCUGGUUAGUCG [ArgXB 16 #CuTurnoff #MS2Left #StaticStem #Blueprint]
The “apparent KD of MS2 coat protein” value of the first is 1.6-fold lower: 19.5 nM for the first, 31.3 nM for the second.

Compared with “ACGUCCAGGUUAAUCGUGGGCAUGGUCGAUACCAGUAUUUUAAUCUACCCUUGGCAGCGACAUGAGGAUCACCCAUGUGCGAUGA [XTheo A #16]”, “ACAUGAGGAUCACCCAUGUACAUGAGGGAAGGAGCGGUACAUGUGCCAGGUAGGUCGCCCAACAGCAUCAGCCAUGUACAACGGA [xxbmullin]” is 3.1-fold higher in “apparent KD of MS2 coat protein” value: 16.9 nM for the first, 52.3 nM for the second.

Going from “AUGCACAUCUAGGAUACCAGCACCCUUAUGUCACUAGUUAACAUGAGGAUCACCCAUGUUUGCCCUUGGCAGCCUCAUUGACCAU [theeternabot_exclusion_MS2_Theo_B_9]” to “UGACAUUGCUCAGAUACCAGACAUGAGGAUCACCCAUGUGCCAAAACGUACUAAAUAAAUGUCCCUUGGCAGCUGAGCAAUGUCU [TheoBX 13 #MS2Left #Theo2]”, the “apparent KD of MS2 coat protein” value falls from 59.7 nM to 12.9 nM (4.6-fold).

Compared with “GAGUCCACGGCGGCCGCCACUCGCGGCGCCACAUGGCGCCGGGACAUGAGGAUCACCCAUGUCCCGAGGACCGGGCCGAUCCUUA [Same State Typrtophan B GF3]”, “CCUAUCCAGUCGGCCGCCACUGAAAACAGUGGGUGAACAUGAGGAUCACCCAUGUAAUAAUAAAACAGGACCGGGACUGUAUAGG [Ex Tryptophan B 22]” is 29-fold higher in “apparent KD of MS2 coat protein” value: 12.9 nM for the first, 369 nM for the second.

system: K4 kissing-loop RNA reporter; assay: apparent KD of K4 kissing-loop reporter; higher = weaker reporter binding; settings: Eterna round: R107; input ligand: FMN 200 uM;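 further: bound reporter read as fluorescence of individual clusters on recovered sequencing chips by microscopy, with normalized cluster intensities fitted with a binding model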
Experimental: as §1, with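 “a labelled K4 kissing-loop RNA reporter” for “SNAP-549-labelled MS2 coat protein”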

“ACAGUCGGCUGUGAUACCAGUCGUAUUACAACAUGUUGCAGUGAUGUUGCGAGAUAGGAUGACCCUUGGCAGCACUCAGUACGAC [Same State Theophylline B GF10]” and “UCUGGAGCAUAUGAUACCAGCAGUGAGAGAGAGGAAGUAUAGUGAUGUUAUAUGAGAGAAUGCCCUUGGCAGCGUGUGUAGUGGG [SSTheophylB.M]” are within 1.5-fold of each other in “apparent KD of K4 kissing-loop reporter” value: 208 nM for the first, 155 nM for the second.

Going from “AACUGUCAAGGACAACAUUACUGAAGUGAUACCAGCAUCGAAAGAUGCCCUUGGCAGCACUGACUUGCAGUGAUGUUGCAAGUAA [BrourdMod 7 - Jieux - Exclusion - Theophylline A]” to “GAUUGUGAUGGAAACAUCGCAAUCUCUGAAGGAGCGCGUGAAAACGCAGGUAGGUCGCAGAACGACAAAGACAGUGAUGUUGUCA [Ex Arginine A K4 5]”, the “apparent KD of K4 kissing-loop reporter” value rises from 211 nM to 321 nM (1.5-fold).

Compared with “AGACGUUUGGGAAGGAGCGGAAUGUAAUACGGAACGCGUGGAGGUGCAGUGAUGUUGCAGAUCCAGGUAGGUCGCCCAAGGGACG [Esenraerve]”, “GCCGUACGCAUGGAUACCAGCCGACCUGAUGUUAAGCUGGUGCCGUAGUGAUGUUACGAAGGCCCUUGGCAGCCAUGCGUACGGC” is 2.2-fold higher in “apparent KD of K4 kissing-loop reporter” value: 94.1 nM for the first, 211 nM for the second.

Compared with “AGACUACUGAUAGGAUAUAACAUACUAGCUCGUAUACCAAAGGUAUACGAGCUCCUUCUAGUGAUGUUAGAAGGGUCGGUAGUCA [Omei KL FMN B Exc B v4]”, “GUGGUUUACGUAGGAUAUCGGUGAUGAGUAAAUGGAGUGAUGUUCCGAGAUUGAAUAUGAGAUGAGCGAGAAGGGCGGUUUAUGC [FMN B Same State; Euporia Solution 3]” is 1.8-fold lower in “apparent KD of K4 kissing-loop reporter” value: 107 nM for the first, 60.8 nM for the second.

Going from “AGACUACUGACAGGAUAUGGCAUCCUGGUCGUAUACCGAAAGGUAUACGAUUUUCUUCUAGUGAUGUUAGAAGGGUCGGUAGUCA [Omei KL FMN B Exc B v15]” to “ACAUUAGGCACGGCCGCCACUGGAUUAAGAUCUUAAGUAUUAAUUAACAUGAGUGAUGUUCAUGCCAGGACCGGGUGACUACCAU [KL-SSTryp-B11]”, the “apparent KD of K4 kissing-loop reporter” value rises from 128 nM to 275 nM (2.1-fold).

First: AUUCGUUUAUGUGAUACCAGACUUUGCAGUGAUGUUGCUUUAAUUAAAGAUGUUUAGUUUGUCCCUUGGCAGCACUAUUUAUUUA [JR_SSTheophyB_Sub001]
Second: UUAGUCUAGAGAAGGAGCGAGUGAUGUUUGCUAAGCUAUAUAAUAAAAUAUAGCAAAUUUACUCAGGUAGGUCGCUCUAGACAUU [AK3 Exc Arginine B]
The “apparent KD of K4 kissing-loop reporter” value of the first is 2.8-fold lower: 54 nM for the first, 153 nM for the second.

First: CGCAGUGAUGUUGCUAUUAUUCUUGGUUAACGAGGACCGGUACGGCCGCCACUCGAUUUCUGUCUAGUCCAGUGUUUUUUUGAGU [whbob_EX_Tryp_A_t7]
Second: AAUGUACAAGUGAUGUUUGUACUUUCCGAAGGAGCGUCUAAUAAGACAGGUAGGUCGCGGAUACUCUAAAUAAUCAGGUCAUUGA [#06 K4 Arginine A Exclusion]
The “apparent KD of K4 kissing-loop reporter” value of the first is 4-fold higher: 363 nM for the first, 89.9 nM for the second.

Compared with “GGGAGUAGUGCGGCCGCCACUGUGAAAGUAGAAGAAUAUAGUGAUGUUAUAUAGGAACAAAAGAAUAGGACCGGGCAUUAGAUUU [SSTRyptB.X]”, “CUAUUUCGCGUGGAUACCAGCGGUCGUAAAAUGUCAGUGAUGUUGAAGAGGAAAAGAGCUCGCCCUUGGCAGCCAUUCCGCACUA [theeternabot_sameState_KL_Theo_B_34]” is 1.9-fold higher in “apparent KD of K4 kissing-loop reporter” value: 311 nM for the first, 591 nM for the second.

“UGUGAUGUGUAGUGUUAUGUUUUGCGGGAUACCAGAGUCUUUUUAUUCCCUUGGCAGCUUGAGUGAUGUUUGAUGCUGUUGUUGU [pwwamullin]” was tested, and the “apparent KD of K4 kissing-loop reporter” value was 485 nM.
